We go through 2 substances from US12528870B2, “Anti-c-Met antibody-drug conjugate and applications thereof” (REMEGEN CO., LTD., priority 2020, dated 2026).

Where two headings read alike, the source gives them in different places.

One series addresses c-Met protein (Homo sapiens, UniProt P08581). The experiment in a line: ELISA binding ability to c-Met antigen. To be noted: c-Met protein coated at 2 μg/ml. The protocol:
The c-Met protein was prepared with a diluent to a final concentration of 2 μg/ml, and added to a microplate at 100 μl per well, overnight at 4° C. The solution in the well was discarded, and the plate was washed three times with PBST. The plate was added with a blocking solution at 300 μl/well and incubated at 37° C. for 2 h. The solution in the well was discarded, and the plate was washed three times with PBST. AAJ8D6 antibody and ABT-700 (i.e., telisotuzumab, its sequence information can be found at https://extranet.who.int/soinn/mod/page/view.php?id=137&inn n=10366, the same below) were diluted to 9 concentrations, added to the 96-well plate and incubated for 2 h. The solution in the well was discarded, and the plate was washed three times with PBST. HRP detection antibody was prepared by adding diluent at a dilution of 1:5000, added at 100 μl per well, and incubated at 37° C. for 1 h. The solution in the well was discarded, and the plate was washed three times with PB ST. The plate was added with TMB color developing solution, incubated at room temperature for 2 min, and then added with Elisa stop solution.

For the next series, the system named is c-Met-positive NSCLC. As to conditions: cited from earlier work.
Series [1] relates to advanced solid tumors / NSCLC. To be noted: cited from earlier work.
The mark [2] stands for this setting: combined administration group (with erlotinib).
The mark [3] stands for this setting: single administration cohort, c-Met-positive NSCLC.

Sequence of c-Met protein (P08581 25-1390): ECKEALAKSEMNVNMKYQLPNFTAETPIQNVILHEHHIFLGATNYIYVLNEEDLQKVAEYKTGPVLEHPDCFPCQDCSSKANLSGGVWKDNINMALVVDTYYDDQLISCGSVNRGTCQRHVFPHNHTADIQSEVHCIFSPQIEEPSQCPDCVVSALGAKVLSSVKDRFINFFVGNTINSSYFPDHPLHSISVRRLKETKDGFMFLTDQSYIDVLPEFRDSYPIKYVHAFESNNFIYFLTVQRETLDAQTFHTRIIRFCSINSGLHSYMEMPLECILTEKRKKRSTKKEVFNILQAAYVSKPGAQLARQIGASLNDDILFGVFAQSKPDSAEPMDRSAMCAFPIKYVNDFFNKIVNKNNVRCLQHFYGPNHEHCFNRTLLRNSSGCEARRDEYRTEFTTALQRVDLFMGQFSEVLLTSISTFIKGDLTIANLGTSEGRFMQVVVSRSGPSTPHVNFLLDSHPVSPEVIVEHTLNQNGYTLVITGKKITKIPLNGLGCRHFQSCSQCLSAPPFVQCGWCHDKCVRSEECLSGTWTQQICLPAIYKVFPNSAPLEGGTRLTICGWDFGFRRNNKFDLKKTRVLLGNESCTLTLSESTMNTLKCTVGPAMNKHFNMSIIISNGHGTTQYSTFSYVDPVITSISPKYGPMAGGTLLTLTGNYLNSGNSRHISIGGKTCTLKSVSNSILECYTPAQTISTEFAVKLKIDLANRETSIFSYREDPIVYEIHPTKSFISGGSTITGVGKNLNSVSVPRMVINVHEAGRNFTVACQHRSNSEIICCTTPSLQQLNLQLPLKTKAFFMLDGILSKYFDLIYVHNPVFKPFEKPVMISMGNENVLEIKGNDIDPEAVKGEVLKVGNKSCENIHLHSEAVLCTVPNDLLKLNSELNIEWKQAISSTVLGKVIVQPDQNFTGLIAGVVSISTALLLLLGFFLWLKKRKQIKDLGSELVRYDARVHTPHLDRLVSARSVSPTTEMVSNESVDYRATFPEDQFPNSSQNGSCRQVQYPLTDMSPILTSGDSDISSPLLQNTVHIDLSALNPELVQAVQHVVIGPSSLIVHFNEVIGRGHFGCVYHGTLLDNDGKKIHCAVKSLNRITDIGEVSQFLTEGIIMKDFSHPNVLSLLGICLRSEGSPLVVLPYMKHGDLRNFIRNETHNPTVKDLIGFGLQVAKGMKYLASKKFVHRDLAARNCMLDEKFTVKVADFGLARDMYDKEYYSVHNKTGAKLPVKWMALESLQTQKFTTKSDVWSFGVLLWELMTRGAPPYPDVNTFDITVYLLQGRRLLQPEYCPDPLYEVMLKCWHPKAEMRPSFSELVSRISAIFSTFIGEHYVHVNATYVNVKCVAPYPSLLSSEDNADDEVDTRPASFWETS

Regarding “ABT-700: competitor anti-c-Met antibody, i.e. telisotuzumab”, the 50% effective concentration (EC50) (usually the concentration that produces a half-maximal response) with c-Met protein came out at 1.33 ng/mL.
For the substance ABBV-399, the “dose at which well tolerated” value with c-Met-positive NSCLC (NSCLC patients) is listed as 2.7 mg/kg. Further, the “patients with partial remission” value in the series with c-Met-positive NSCLC (combined administration group (with erlotinib), 1 remains to be confirmed) is given as 4/13. For the same substance, in the series on c-Met-positive NSCLC (combined administration group (with erlotinib), after 12 weeks of treatment), the patients under control is 76.9%. In the series on c-Met-positive NSCLC (setting [2]), the “adverse reaction: nausea, patients” value is recorded as 23.1% and the “adverse reaction: neuralgia, patients” value was 46.2%. Further, in the series on c-Met-positive NSCLC (setting [3]), the “adverse reaction: fatigue, patients” value is 43.8%; the “adverse reaction: nausea (first listed), patients” value was 37.5%; the “adverse reaction: nausea (listed a second time), patients” value is 18.8%. For the same substance, in the series on c-Met-positive NSCLC (single administration group and combined administration group), the treatment-related deaths entry is “no treatment-related deaths”. Besides, the patients under control with c-Met-positive NSCLC (single administration group, after 12 weeks of administration) was 56.3%. Moreover, in the series with c-Met-positive NSCLC (single administration group), the “patients who experienced partial remission” value was 3/16. In series [1] (NSCLC patients with H-score ≥150), the “patients who experienced partial remission” value is given as “about 19%”. Moreover, in series [1] (every three weeks), the tolerated dose is 2.7 mg/kg. For the same substance, in series [1] (in vivo), the “most frequently occurring toxicity: decreased appetite” value is given as 13%, the “most frequently occurring toxicity: diarrhea” value is on record as 10% and the “most frequently occurring toxicity: vomiting” value is recorded as 13%.
